# From US12421510B2, “Peptide, a complex and a method for treating cancer” (TECHNION RESEARCH & DEVELOPMENT FOUNDATION LIMITED, priority 2018, dated 2025)
# “Also recorded” adds a separate entry of the source.
# T1: p105 (Homo sapiens, UniProt P19838)
# T1 sequence (P19838 1-968): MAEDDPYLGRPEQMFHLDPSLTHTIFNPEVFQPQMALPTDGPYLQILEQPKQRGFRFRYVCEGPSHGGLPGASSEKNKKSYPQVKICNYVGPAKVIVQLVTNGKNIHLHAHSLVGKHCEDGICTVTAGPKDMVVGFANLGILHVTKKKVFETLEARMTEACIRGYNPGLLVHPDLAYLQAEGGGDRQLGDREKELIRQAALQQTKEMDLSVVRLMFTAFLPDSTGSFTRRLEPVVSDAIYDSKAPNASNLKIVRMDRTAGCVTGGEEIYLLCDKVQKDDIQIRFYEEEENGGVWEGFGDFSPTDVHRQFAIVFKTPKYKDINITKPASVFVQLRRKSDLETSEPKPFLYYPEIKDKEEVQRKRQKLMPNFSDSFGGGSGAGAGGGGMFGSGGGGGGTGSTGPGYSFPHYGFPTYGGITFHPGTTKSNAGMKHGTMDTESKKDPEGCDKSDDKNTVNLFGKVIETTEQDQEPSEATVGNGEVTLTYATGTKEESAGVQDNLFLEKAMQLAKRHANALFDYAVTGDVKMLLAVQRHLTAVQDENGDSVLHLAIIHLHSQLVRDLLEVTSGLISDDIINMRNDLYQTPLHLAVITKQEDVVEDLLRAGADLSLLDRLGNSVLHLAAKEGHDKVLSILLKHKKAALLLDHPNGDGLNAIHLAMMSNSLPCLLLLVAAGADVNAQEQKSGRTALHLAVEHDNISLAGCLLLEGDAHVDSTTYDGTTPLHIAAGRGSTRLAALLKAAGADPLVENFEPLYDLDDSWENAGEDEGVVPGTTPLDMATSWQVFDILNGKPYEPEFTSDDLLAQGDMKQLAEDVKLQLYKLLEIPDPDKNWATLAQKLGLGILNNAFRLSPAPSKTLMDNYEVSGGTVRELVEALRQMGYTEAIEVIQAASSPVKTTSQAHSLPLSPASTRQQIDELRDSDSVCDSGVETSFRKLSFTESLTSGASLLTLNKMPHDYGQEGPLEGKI
# B1: KPC1Δ1-1017: KPC1 species that lacks the amino acids 1-1017 (protein, UniProt Q5XPI4 1018-1314, looked up, fragment)
# chain: LLQQGPDVAPSFLNSVLNQLNWAFSEFIGMIQEIQQAAERLERNFVDSRQLKVCATCFDLSVSLLRVLEMTITLVPEIFLDWTRPTSEMLLRRLAQLLNQVLNRVTAERNLFDRVVTLRLPGLESVDHYPILVAVTGILVQLLVRGPASEREQATSVLLADPCFQLRSICYLLGQPEPPAPGTALPAPDRKRFSLQSYADYISADELAQVEQMLAHLTSASAQAAAASLPTSEEDLCPICYAHPISAVFQPCGHKSCKACINQHLMNNKDCFFCKTTIVSVEDWEKGANTSTTSSAA
# B2: WILVRLW-KPC1Δ1-1253: KPC1 lacking amino acids 1-1253 with WILVRLW at its N-terminus, SEQ ID NO: 8 (protein)
# chain: WILVRLWCPICYAHPISAVFQPCGHKSCKACINQHLMNNKDCFFCKTTIVSVEDWEKGANTSTTSSAA
# B3: WILVRLW-KPC1-Δ1-1061: truncated KPC1 with the 7 amino acid sequence brought closer to RING domain, SEQ ID NO: 7 (protein)
# chain: WILVRLWFVDSRQLKVCATCFDLSVSLLRVLEMTITLVPEIFLDWTRPTSEMLLRRLAQLLNQVLNRVTAERNLFDRVVTLRLPGLESVDHYPILVAVTGILVQLLVRGPASEREQATSVLLADPCFQLRSICYLLGQPEPPAPGTALPAPDRKRFSLQSYADYISADELAQVEQMLAHLTSASAQAAAASLPTSEEDLCPICYAHPISAVFQPCGHKSCKACINQHLMNNKDCFFCKTTIVSVEDWEKGANTSTTSSAA
# Experiments:
# p105 [1] = biological target: T1, p105; experiment: Competition by synthetic KPC1-derived peptides of p105 ubiquitination by KPC1-Δ1-967 in reconstituted cell-free system; type: biochemical; settings: compared to 6 amino acids ILVRLW peptide
# From the text: Presented is the change (in %) of unconjugated p105 remained following addition of increasing concentrations of the peptides (compared to a system to which a peptide was not added; lane 3). Amid denotes N-terminal amidation and Ac denotes C-terminal acetylation.
# Presented is the change (in %) of unconjugated p105 remained following addition of increasing concentrations of the peptides (compared to a system to which a peptide was not added; lane 2).
# To further confirm that 7 amino acids WILVRLW of KPC1-Δ1-967 (SEQ ID. No. 5) are involved in the interaction with p105, an experiment was designed in which the binding of p105 to the ligase was competed with a synthetic peptides derived from KPC1.
# p105 [2] = biological target: T1, p105; experiment: Co-immunoprecipitation (Co-IP) of KPC1 species with p105-HA from transfected HEK293T cells; type: binding; parameters: HA; expressed in transfected cells; host or cells: HEK293T; settings: anti-FLAG immunoprecipitation, anti-NF-κB1 western blot
# From the text: FIG. 1B is a western blot showing the following: HEK293T cells were transfected with cDNAs coding for p105-HA (lanes 1-6), along with the different KPC1 species as following: W.T KPC1 (lane 1), KPC1Δ969-1314 (lane 2), KPC1Δ1-438 & 1039-1314 (lane 3), KPC1Δ1-967 (lane 4) and KPC1Δ1-1042 (lane 5). Lane 6 was transfected with an empty vector. KPC1 species were immunoprecipitated using immobilized FLAG antibodies, resolved by SDS-page, and NF-κB1 and KPC1 proteins were visualized by anti-NF-κB1 (FIG. 1B (upper)) and anti-FLAG (FIG. 1B (bottom)) antibodies, respectively. 10% of the total cell lysate was analyzed for the expression of p105-HA.
# FIG. 2B is a western blot. HEK293T cells were transfected with cDNAs coding for p105-HA (lanes 1-7), along with different KPC1 species as following: WT KPC1 (lane 1), KPC1Δ1-967 (lane 2), KPC1Δ967-1043 (lane 3), KPC1Δ1-973 (lane 4), KPC1Δ1-1017 (lane 5) and KPC1ΔCC domain (lane 6). Lane 7 represents cells that were transfected with empty vector. KPC1 species were immunoprecipitated using immobilized FLAG antibodies, resolved by SDS-page. NF-κB1 and KPC1 proteins were visualized with anti-NF-κB1 (FIG. 2B (i)) and anti-FLAG (FIG. 2B (ii)) antibodies, respectively. 10% of the total cell lysate was analyzed for the expression of p105-HA. FIGS. 3A and 3B: FIG. 3A is a schematic representation of KPC1 species used in the experiment shown in FIG. 3B that was directed to evaluating the region of KPC1 that is responsible for the interaction with p105.
# FIG. 3B is a western blot. HEK293T cells were transfected with cDNAs coding for p105-HA (lanes 1-12), along with different KPC1 species as following: KPC1-FLAG (lane 1), WILVRLW-KPC1 Δ 1-1253 (SEQ ID NO: 8) (lane 2), ILVRLW-KPC1 Δ 1-1253 (SEQ ID NO: 10) (lane 3), LVRLW-KPC1 Δ 1-1253 (SEQ ID NO: 11) (lane 4), VRLW-KPC1 Δ 1-1253 (lane 5) (SEQ ID NO: 12), RLW-KPC1 Δ 1-1253 (lane 6) SEQ ID NO:13), KPC1 Δ 1-1253 (lane 7), WILVRL-KPC1 Δ 1-1253 (lane 8) (SEQ ID NO: 14), WILVR-KPC1 Δ 1-1253 (SEQ ID NO: 15) (lane 9), WILV-KPC1 Δ 1-1253 (SEQ ID NO: 16) (lane 10), WIL-KPC1 Δ 1-1253 (SEQ ID NO: 17 (lane 11). Lane 12 represents cells that were transfected with empty vector. KPC1 species were immunoprecipitated using immobilized FLAG antibodies, resolved by SDS-page. NF-κB1 and KPC1 proteins were visualized by anti-NF-κB1 (FIG. 3B, (i, ii) and anti-FLAG (FIG. 3B, (iii) antibodies, respectively. 10% of the total cell lysate was analyzed for the expression of p105-HA (FIG. 3B, (ii)).
# HEK293T cells were transiently transfected with the various KPC1 species along with p105-HA using the j etPEI reagent. 48 hours after transfection, the cells were harvested and lysed with RIPA buffer [150 mM NaCl, 0.5% sodium deoxycholate, 50 mM Tris-HCl (pH 8.0), 0.1% SDS, and 1% NP-40, supplemented with freshly added protease inhibitors mixture]. KPC1 species proteins were immunoprecipitated with immobilized anti-FLAG, with subsequent washing of the beads five times with RIPA buffer. The immunoprecipitated proteins were resolved by SDS-PAGE (10%, FIGS. 1A, 1B, 2A and 2B, with a gel gradient, of 4-20%; FIGS. 3A and 3B), and blotted onto nitrocellulose (FIGS. 1A, 1B, 2A and 2B) or PVDF (FIGS. 3A and 3B) membranes. p105 and KPC1 species were visualized using anti-NF-κB1 or anti-FLAG antibodies, respectively.
# Identification of the region of KPC1 that is responsible for the interaction with p105. In order to identify the region of KPC1 that is responsible for the interaction with p105, several truncated segments of the DNA sequence of the KPC1 protein were cloned. The truncated segments were inserted into the pCAGGS expression vector to analyze their interaction with p105 by co-immunoprecipitation (Co-IP) from cells. HEK 293T cells were transfected with cDNAs coding for p105-HA, along with different fragments of KPC1 (FIG. 1A). Species of KPC1 were immunoprecipitated using an immobilized anti-Flag antibody. […]
# p105 [3] = biological target: T1, p105; experiment: Ubiquitination of p105 by purified KPC1 species in cell-free conjugation assay; type: biochemical; settings: reconstituted cell-free system, in vitro translated 35S-labeled p105, purified Ub, E1, E2, UbAl, ATP
# From the text: FIGS. 4A and 4B represent western blots showing in vitro ubiquitination of p105 by mutated species of KPC1: FIG. 4A: In vitro translated and ^35S-labeled p105 was ubiquitinated by purified KPC1-Δ1-967-6xHIS (lanes 2-4) or KPC1-Δ1-974-6xHIS (lanes 5-7) in a reconstituted cell-free system. 4B) In vitro translated and ^355-labeled p105 was ubiquitinated by purified KPC1-Δ1-967-6xHIS (lanes 2,5,6), KPC1-Δ1-974-6xHIS (lane 3), KPC1-Δ967-1043-6xHIS (lane 4), WILVRLW-KPC1-Δ1-1039-6xHIS (lanes 7-8) or WILVRLW-KPC1-Δ1-1061-6xHIS (lanes 9-10) in a reconstituted cell-free system.
# In order to assess if the interaction between two proteins leads to the conjugation of the substrate p105, ubiquitination reaction was performed in cell free system. The conjugation reaction was carried out in the presence of purified Ub, E1, E2, UbAl, ATP and KPC1—either wild-type or different mutant species. Samples were resolved via SDS-PAGE and the 35S-labeled p105 and its adducts were visualized using autoradiography. […] In addition, the shorter versions of KPC1 in which the 7 amino acids sequence were brought closer to RING domain, the active site of the enzyme were prepared. Both truncated KPC1 proteins that harbor the 7 amino acid sequence, WILVRLW-KPC1-Δ1-1039 (SEQ ID. No. 6) and WILVRLW-KPC1-Δ1-1061 (SEQ ID. No. 7), modified p105 (FIG. 4B, lanes 7-10).
molecule,measurement,setting,value
"WILVRLW [synthetic 7 amino acids peptide, positions 968-974 of KPC1]",inhibition of ubiquitination of p105 by KPC1-Δ1-967,p105 [1]; non-modified peptides (FIG. 6),inhibited ubiquitination of p105 by KPC1-Δ1-967; also recorded: inhibits ubiquitination of p105
same,inhibition of ubiquitination of p105 by KPC1-Δ1-967,p105 [1]; peptides modified by N-terminal amidation and C-terminal acetylation (FIG. 5),inhibited ubiquitination of p105 by KPC1-Δ1-967; also recorded: inhibits ubiquitination of p105
B1,interaction with p105 (Co-IP),p105 [2],did not interact with p105
B2,interaction with p105 (Co-IP),p105 [2],An interaction was observed
B3,ubiquitination of p105,p105 [3],modified p105
